Measured values taken from PMC3583217, “Novel HER2 Aptamer Selectively Delivers Cytotoxic Drug to HER2-positive Breast Cancer Cells in Vitro”.

Target: HER2 extracellular domain (ECD) (UniProt P04626 23-652)
Test: flow cytometry on protein-coated beads; random-library background subtracted; Hanks buffer (SELEX binding buffer with 0.1 mg/mL salmon sperm DNA and 1 mg/mL BSA), 37 C, 30 min; pH not stated; aptamer pool heated 95 C 5 min then iced in SELEX
Conditions: protein: commercial; tags: covalently coupled to magnetic beads; label: FITC (5' via primer P1 in SELEX)

B1: HB5 (ssDNA)
DNA: AACCGCCCAAATCCCTAAGAGTCTGCACTTGTCATTTTGTATATGTATTTGGTTTTTGGCTCTCACAGACACACTACACACGCACA
- Kd: 316 nM
